{"source": "paper PMC2914181", "about": "(Biochemical and biophysical research communications, 2009)", "biological_target": "the molecule itself", "test": "SEC", "data": [{"protein": "Campylobacter jejuni β-hydroxyacyl-ACP dehydratase (FabZ) (enzyme, Campylobacter jejuni strain 81-176, UniProt Q9PIM2 1-146, looked up) MIDVMQIQEILPHRYPFLLVDKITELKVKEVVLGYKNISISDHVFMGHFPGHPIYPGVLILEGMAQTGGVLAFESMEDKVDPKSKVVYFTGIDGAKFRNPVRPGDRLDYEMSVVKNRGNMWIFKGQAFVDGNLVAEAELKAMIVDK", "values": [{"measurement": "stoichiometry N", "value": 6}]}]}
